Reference: publication doi:10.1101/2025.03.21.644525 (bioRxiv, 2025)

Target: T1, ARM domain of APC (residues 338-1010), untagged (Mus musculus, UniProt Q61315 338-1010)
T1 sequence (looked up): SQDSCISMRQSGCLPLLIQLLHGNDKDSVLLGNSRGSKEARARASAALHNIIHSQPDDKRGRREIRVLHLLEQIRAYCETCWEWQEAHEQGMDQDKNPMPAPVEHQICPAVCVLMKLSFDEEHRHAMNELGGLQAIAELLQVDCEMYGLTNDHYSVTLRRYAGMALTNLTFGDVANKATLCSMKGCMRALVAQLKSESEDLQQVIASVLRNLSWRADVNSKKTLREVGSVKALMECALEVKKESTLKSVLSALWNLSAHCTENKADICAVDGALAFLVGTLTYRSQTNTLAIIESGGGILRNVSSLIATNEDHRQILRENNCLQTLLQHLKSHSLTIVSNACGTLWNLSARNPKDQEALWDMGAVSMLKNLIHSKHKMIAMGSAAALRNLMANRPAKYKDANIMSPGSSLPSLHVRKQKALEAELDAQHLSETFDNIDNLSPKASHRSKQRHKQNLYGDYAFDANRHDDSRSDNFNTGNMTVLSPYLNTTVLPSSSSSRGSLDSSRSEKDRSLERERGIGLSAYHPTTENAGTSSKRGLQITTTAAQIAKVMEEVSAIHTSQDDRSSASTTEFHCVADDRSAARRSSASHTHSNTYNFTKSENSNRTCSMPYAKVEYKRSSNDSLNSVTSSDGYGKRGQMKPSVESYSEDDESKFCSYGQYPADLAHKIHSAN
Experiment: cryo-EM structure

- binding result: binds
B1: KIF3A C-terminal region (residues 481-701, ACT), N-terminal 6His tag (domain or fragment, Mus musculus, UniProt P28741 481-701, looked up)
chain: VIVGGVDLLAKAEEQEKLLEESNMELEERRRRAEQLRKELEEKEQERLDIEEKYTSLQEEAQGKTKKLKKVWTMLMAAKSEMADLQQEHQREIEGLLENIRQLSRELRLQMLIIDNFIPQDYQEMIENYVHWNEDIGEWQLKCVAYTGNNMRKQTPVPDKKERDPFEVDLSHVYLAYTEESLRQSLMKLERPRTSKGKARPKMGRRKRSAKPETVIDSLLQ
